Results taken from patent US20080305517A1, “Transglutaminase Crosslinked Collagen Biomaterial for Medical Implant Materials” (ASTON UNIVERSITY, priority 2004, published 2008).

B1: mTG: Microbial transglutaminase from Streptoverticillium mobaraenase, purified from Activa WM (Ajinomoto) (protein, UniProt P81453 77-407, looked up)
Protein-glutamine …: DSDDRVTPPAEPLDRMPDPYRPSYGRAETVVNNYIRKWQQVYSHRDGRKQQMTEEQREWLSYGCVGVTWVNSGQYPTNRLAFASFDEDRFKNELKNGRPRSGETRAEFEGRVAKESFDEEKGFQRAREVASVMNRALENAHDESAYLDNLKKELANGNDALRNEDARSPFYSALRNTPSFKERNGGNHDPSRMKAVIYSKHFWSGQDRSSSADKRKYGDPDAFRPAPGTGLVDMSRDRNIPRSPTSPGEGFVNFDYGWFGAQTEADADKTVWTHGNHYHAPNGSLGAMHVYESKFRNWSEGYSDFDRGAYVITFIPKSWNTAPDKVKQGWP

Legend:
Type I collagen = test: Collagen fibril formation rate (turbidity at 325 nm), type I collagen; assay type: biochemical, calf
Procedure: (§1) FIG. 1. Type I collagen fibrillogenesis after neutralisation in the presence of transglutaminases. Collagen (3 mg/ml) was neutralised as in the methods and was treated with 0, 50 or 250 μg/ml of microbial TG (A) or tTG (B). 500 μM of the TGase inhibitor N-Benzyloxycarbonyl-L-phenylalanyl-6-dimethyl-sulfonium-5-oxo-L-norleucine (‘R281’) was used to confirm that the effects were due to transglutaminase activity. The absorbance at 325 nm was measured using a PYE Unicam SP1800 UV spectrophotometer. The temperature was controlled at 25° C. using a Techne C-85A circulator. Results are from the average of 3 independent experiments.
(§2) Collagen fibrillogenesis was monitored by measuring the absorbance (turbidity) at 325 nm using a PYE Unicam SP1800 UV spectrophotometer.

Type III collagen = test: Collagen fibril formation rate (turbidity at 325 nm), type III collagen; assay type: biochemical
Procedure: as §1, with “FIG. 2.” for “FIG. 1.”, “Type III” for “Type I”, “of mTG” for “of microbial TG”, “μM” for “μM of the TGase”, “inhibitor R281” for “inhibitor N-Benzyloxycarbonyl-L-phenylalanyl-6-dimethyl-sulfonium-5-oxo-L-norleucine (‘R281’)”
as §2

[1] = Determination of ε-(γ-glutamyl)lysine cross-link (ion exchange amino acid analysis of digested collagen); assay type: physicochemical; details: for the equivalent (μg of protein) TG concentration
Procedure: Neutralised collagen mixture was subjected to treatment by both tissue and microbial TG. Samples of the neutralised collagen were treated with 50-1000 μg/ml of tTG, in a reaction mix consisting of 2 mM DTT and 5 mM CaCl2 in 10 mM Tris buffer (pH 7.4). The reaction mixture for the microbial enzyme simply consisted of 10 mM Tris buffer (pH 7.4). Incorporated fibronectin (Sigma-Aldrich, Poole, UK. Cat no. F0895) was used at concentrations of 5 μg/ml and 50 μg/ml. Transglutaminase was always added last to the collagen-reaction mix to minimise any self-imposed cross-linking. […]
Cross-linked and native samples of collagen were proteolytically digested by a modification of the methods of Griffin and Wilson (1984), which included an initial digestion with microbial collagenase (Clostridium histolyticum; 1 mg/ml, Sigma-Aldrich, Poole, UK. Cat no. C9891), prior to the addition of further proteases. […] Derivatisation was performed post column using o-pthaldialdehyde (0.8M boric acid, 0.78M potassium hydroxide, […] o-phthaldialdehyde, 0.5% (v/v) methanol, 0.75% (v/v) 2-mercaptoethanol, 0.35% (v/v) Brij 30) and the absorbance was measured at 450 nm. Dipeptide was determined by addition of known amounts of ε(γ-glutamyl)lysine to the sample and comparing peak areas.

N,N′-dimethylcasein = test: Transglutaminase activity: incorporation of [14-C]-putrescine into N,N′-dimethylcasein; assay type: biochemical; details: Unit = 1 nmol of putrescine incorporated per hour
From the text: The incorporation of [14-C]-putrescine into N,N′-dimethylcasein, as described earlier by Lorand et al. (1972) was used to assay for TG activity and monitor the effects of the inhibitors. Unit of transglutaminase activity is 1 nmol of putrescine incorporated per hour.

[2] = 50 μg or 250 μg of TG, collagen 3 mg/ml, absorbance at 325 nm, 25° C., vs untreated

Molecule | inhibition of the transglutaminase effects on fibrillogenesis (Type I collagen; 500 μM inhibitor) | inhibition of the transglutaminase effects on fibrillogenesis (Type III collagen; 500 μM inhibitor) | amount of isopeptide formed, comparison in words [1] | Activity of the transglutaminase used to pre-treat collagen for the cell experiments (N,N′-dimethylcasein) [Units/mg] | Typical activities for the transglutaminases used (N,N′-dimethylcasein) | time taken to achieve gel formation (Type I collagen; [2]) | time taken to achieve gel formation (Type III collagen; [2])
C[S+](C)CC(=O)CC[C@H](NC(=O)[C@H](Cc1ccccc1)NC(=O)OCc1ccccc1)C(=O)O.[Br-] [R281, N-Benzyloxycarbonyl-L-phenylalanyl-6-dimethylsulfonium-5-oxo-L-nor-leucine bromide salt, reference compound] | abolished these effects | abolished these effects |  |  |  |  | 
B1 |  |  | much greater increase (almost two-fold) | 16000 | 16000-25000 Units/mg | significant reduction | significant reduction
